{
  "source": "paper PMC4568413",
  "about": "“Functional analysis of the sporulation-specific diadenylate cyclase CdaS in Bacillus thuringiensis” (Frontiers in Microbiology, 2015)",
  "proteins": {"B1": {"name": "CdaS protein from Bacillus thuringiensis BMB171 (enzyme, UniProt D5TM67 1-201, looked up)", "chain": "MHEWGLSEELKIQTKQMIEIAEKELSIMRNAIDKEDECILCKMEDIHHMLANVQTLAATYYIQAYLSPYTESSSFITTAIQHLSARKHGALIVVERNETLEALIQTGTTLNAHLTAPLLESIFYPGNPLHDGAVLVKNNHIVSAANILPLTKSTEVDPELGTRHRAAIGLSEKSDALILVVSEETGRTSFALNGILYTISL", "notes": "CdaS (cyclic di-AMP synthase, sporulation-specific; N-terminal YojJ domain and C-terminal DAC domain) of Bacillus thuringiensis BMB171; full length, the truncated constructs end at residue 201; cdaS gene 606 bp; theoretical monomer mass 23.3 kDa; Cloned in NcoI and XhoI sites of pET28b; also called B. thuringiensis CdaS; wild type CdaS; source: E. coli BL21(DE3) harboring pET28b-cdaS, purified …"}},
  "target": "the molecule itself",
  "experiment": "SEC; Superdex 200HR 10/30; about 10 mg/mL CdaS loaded (1 mL); 25 mM Tris-HCl pH 8.0, 150 mM NaCl; 0.5 mL/min; calibrated with Bio-Rad protein standards",
  "data": [
    {"protein": "B1", "values": [
      {"measurement": "stoichiometry N", "result": 6}
    ]}
  ]
}
